Assay results reported in US8394607B2, “Anti-CD22 antibodies and immunoconjugates and methods of use” (Genentech, Inc., priority 2006, dated 2013).
Numbering of substitutions follows the chain as printed. Numbers in names are those of the source. Where “and” joins values, the source holds several entries; their conditions need not be identical. Equal entries are not always repeated.

Legend:
[1] = system: DoHH2 cells; assay: DoHH2 xenograft tumor volume reduction; type: in vivo; details: Table 16 study; follicular lymphoma DOHH2 xenograft, CB17 SCID mice; 600 or 300 μg/m^2
Source text: In a similar study, using the same xenograft study protocol as disclosed in the above examples, varying the TDCs and doses administered, the efficacy of TDCs in follicular lymphoma DOHH2 xenografts in CB17 SCID mice was studied.

[2] = system: Granta-519 cells; assay: Granta-519 xenograft tumor volume reduction; type: in vivo, SCID mice; details: Table 14 study, FIG. 19, 100 μg/m^2 drug at Day 0
Experimental: The ability of the thiomab drug conjugates prepared according to Example 11 to reduce B-cell tumor volume in xenograft models was tested according to the procedure disclosed in Example 9, herein. To SCID mice having Granta-519 cell xenograft tumors, control and anti-CD22 humanized 10F4v3 thiomab drug conjugates were administered at Day 0 in the doses shown in Table 14, below. The control HC(A118C) thiomab was anti-HER2 4D5 antibody.
Additional thiomab drug conjugates were tested in Granta-519 xenografts in CB17 SCID mice using the same protocol, although different drug doses were tested. The control antibody or control thiomab was anti-HER24D5 antibody or HC(A118C) thiomab.

[3] = system: BJAB-luc cells; assay: BJAB-luc xenograft tumor volume reduction; type: in vivo, SCID mice; details: single I.V. treatment, 32 days
Experimental: Sixty-five SCID mice were injected with 2×10^7 BJAB-luc cells subcutaneously in a volume of 0.2 ml per mouse in the flank. Cells were suspended in HBSS. When the mean tumor size reached 100-200 mm^3, mice were randomly grouped into four groups of 9 mice each and given a single I.V. treatment (via the tail vein) of the anti-CD22 or control antibody indicated in Table 4, below.
Mean tumor volume was monitored in each treatment group for 32 days post-antibody injection. Tumor measurements were taken with calipers. Efficacy of the toxin-conjugated anti-CD22 antibodies was determined by comparison to the control and unconjugated antibodies. […]

[4] = system: cynomolgus monkey (cyno) CD22 expressed on the surface of CHO cells; assay: Cell-based competitive binding assay with 125I antibody, Scatchard analysis; details: 4 hours at 4° C.
Experimental: Briefly, CHO cells stably expressing full length human CD22 (SEQ ID NO:27) or cynomolgus monkey (cyno) CD22 (SEQ ID NO:31). […] A cell-based, competitive binding assay was performed using serially diluted, unlabeled anti-CD22 antibody. Antibodies were allowed to bind to the cells for 4 hours at 4° C. Binding affinity, KD, of the antibodies was determined in accordance with standard Scatchard analysis performed utilizing a non-linear curve fitting program (see, for example, Munson et al., Anal Biochem, 107: 220-239, 1980).

[5] = target: T1, human CD22-beta-ECD-His tagged soluble antigen (Homo sapiens, UniProt P20273, A486R/Y639H); assay: BIACORE surface plasmon resonance binding to soluble CD22 ECD; details: BIACORE 3000, 25° C., antibody coupled to chip, soluble CD22 ECD injected; one-to-one Langmuir model
T1 sequence (P20273 22-681 A486R/Y639H): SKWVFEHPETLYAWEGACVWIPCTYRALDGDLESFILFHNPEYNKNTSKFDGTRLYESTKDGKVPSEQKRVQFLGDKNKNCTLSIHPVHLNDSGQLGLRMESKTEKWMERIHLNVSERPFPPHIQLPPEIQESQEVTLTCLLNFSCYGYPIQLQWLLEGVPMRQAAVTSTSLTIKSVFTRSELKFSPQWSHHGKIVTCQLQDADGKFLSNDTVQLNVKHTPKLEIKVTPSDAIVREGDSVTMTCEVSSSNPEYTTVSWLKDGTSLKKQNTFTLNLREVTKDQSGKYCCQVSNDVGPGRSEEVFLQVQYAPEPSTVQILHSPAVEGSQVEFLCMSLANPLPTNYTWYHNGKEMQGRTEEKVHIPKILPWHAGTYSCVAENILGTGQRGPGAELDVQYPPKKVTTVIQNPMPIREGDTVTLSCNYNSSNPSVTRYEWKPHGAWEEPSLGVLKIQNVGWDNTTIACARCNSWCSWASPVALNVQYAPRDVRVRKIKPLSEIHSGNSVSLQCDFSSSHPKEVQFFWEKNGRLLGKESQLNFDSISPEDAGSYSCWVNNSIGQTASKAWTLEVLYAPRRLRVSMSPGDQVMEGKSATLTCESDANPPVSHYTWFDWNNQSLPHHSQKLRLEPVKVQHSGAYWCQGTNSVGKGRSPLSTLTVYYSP
Experimental: The binding affinity of murine and humanized 10F4 antibody for soluble CD22 extracellular domain (ECD) was determined by surface plasmon resonance measurement using a BIACORE® 3000 system (Biacore, Inc., Piscataway, N.J.). Briefly, carboxymethylated dextran biosensor chips (CMS, Biacore Inc.) were activated with N-ethyl-N′-(3-dimethylaminopropyl)-carbodiimide hydrochloride (EDC) and N-hydroxysuccinimide (NHS) according to the supplier's instructions. These activated chips were coated with anti-CD22 IgG1 antibody 10F4 (murine or humanized) by dilution to 5 μg/ml with 10 mM sodium acetate, pH 4.8, before injection at a flow rate of 5 μl/minute to achieve approximately 500 response units (RU) of coupled antibody. Next, 1M ethanolamine was injected to block unreacted groups. […] Association rates (kon) and dissociation rates (koff) were calculated using a simple one-to-one Langmuir binding model (BIAevaluation Software version 3.2). The equilibrium dissociation constant (Kd) was calculated as the ratio koff/kon. Anti-CD22 antibody, RFB4, was used as a control (Chemicon International, Inc., Temecula, Calif., catalog no. CBL147).

[6] = Table 4 study, 200 μg/m^2 DM1 (naked antibody 3.4 mg/kg)
[7] = Table 5 study, 200 μg/m^2 DM1 (naked antibody 4.5 mg/kg)

Chain of cynomolgus monkey (cyno) CD22 expressed on the surface of CHO cells (as listed by the source): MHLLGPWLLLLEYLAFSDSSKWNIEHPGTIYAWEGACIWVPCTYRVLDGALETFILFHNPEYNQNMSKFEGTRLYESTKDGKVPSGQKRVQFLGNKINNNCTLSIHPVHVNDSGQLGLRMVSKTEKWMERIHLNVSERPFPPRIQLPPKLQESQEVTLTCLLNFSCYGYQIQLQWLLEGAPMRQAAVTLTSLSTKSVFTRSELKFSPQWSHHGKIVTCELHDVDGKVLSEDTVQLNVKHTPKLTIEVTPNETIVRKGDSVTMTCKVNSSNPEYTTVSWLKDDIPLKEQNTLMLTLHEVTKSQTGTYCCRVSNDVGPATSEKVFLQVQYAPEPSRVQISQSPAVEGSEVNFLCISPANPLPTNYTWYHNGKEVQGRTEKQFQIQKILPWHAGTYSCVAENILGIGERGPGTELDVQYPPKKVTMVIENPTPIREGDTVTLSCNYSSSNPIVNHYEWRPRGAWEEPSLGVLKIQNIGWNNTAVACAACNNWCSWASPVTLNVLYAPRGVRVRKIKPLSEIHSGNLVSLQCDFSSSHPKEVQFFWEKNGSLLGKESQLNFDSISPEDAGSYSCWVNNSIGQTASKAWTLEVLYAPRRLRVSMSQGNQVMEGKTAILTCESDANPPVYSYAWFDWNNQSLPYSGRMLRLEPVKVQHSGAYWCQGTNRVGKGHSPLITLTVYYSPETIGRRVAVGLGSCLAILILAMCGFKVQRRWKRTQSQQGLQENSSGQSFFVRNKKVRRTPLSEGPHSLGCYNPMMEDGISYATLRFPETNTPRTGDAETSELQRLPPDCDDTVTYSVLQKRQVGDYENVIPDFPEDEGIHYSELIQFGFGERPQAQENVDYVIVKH

In the case of “Thio 10F4v3-HC(A118C)-BMPEO-DM1: conjugation of A118C thio hu HC-10F4v3 and bmpeo-DM1”, the “efficacy on mean tumor volume” value [1] is reported as “intermediate efficacy”.

“Thio 10F4v3-LC(V205C)-MCvcPAB-MMAE: conjugation of V205C thio hu LC-10F4v3 and MC-val-cit-PAB-MMAE” was tested, and the mean tumor volume [2] was “reduction in mean tumor volume for the duration of the study” and the mean tumor volume ([2]; listed as 10F4-LC-V210C-MCvcPAB-MMAE) was “decrease in tumor volume during the study”.

B1: Humanized 10F4v1: humanized 10F4 version 1, VH SEQ ID NO:16, VL SEQ ID NO:17, IgG1 (antibody, V domains shown)
VH: EVQLVESGGGLVQPGGSLRLSCAASGYEFSRSWMNWVRQAPGKGLEWVGRIYPGDGDTNYSGKFKGKATLTADKSSSTAYLQMNSLRAEDTAVYYCARDGSSWDWYFDYWGQGTLVTVSS
VL: DIQMTQSPSSLSASVGDRVTITCRSSQSIVHSNGNTFLEWYQQKPGKAPKLLIYKVSNRFSGVPSRFSGSRSGTDFTLTISSLQPEDFATYYCFQGSQFPYTFGQGTKVEIKR
modifications: IgG1 constant regions; sequence is synthesized
In the case of B1, the “CR (number of animals attaining complete remission)” value [3, 6] is reported as 0, the “PR (number of animals with tumor regressed 50-99% from its initial volume)” value [3, 6] is reported as 0 and the “TI (tumor incidence at the last time point; tumor-bearing animals / total animals)” value [3, 6] is reported as 9/9. For the same molecule, the Kd ([4]; listed as Hu 10F4v1) was 1.4 nM and 1.8 nM.

B2: Humanized 10F4v2: humanized 10F4 version 2, N28V in HVR-L1, VH SEQ ID NO:16, VL SEQ ID NO:18, IgG1 (antibody, V domains shown)
VH: B1 VH
VL: B1 VL with N33V
modifications: IgG1 constant regions; sequence is synthesized
For B2, the “CR (number of animals attaining complete remission)” value [3, 7] was 0, the “PR (number of animals with tumor regressed 50-99% from its initial volume)” value [3, 7] was 0 and the “TI (tumor incidence at the last time point; tumor-bearing animals / total animals)” value [3, 7] was 9/9. The Kd [4] was 2.1 nM.

B3: Chimeric 10F4: chimeric 10F4 anti-CD22 antibody (antibody, V domains shown)
VH: QVQLQQSGPELVKPGASVKISCKASGYEFSRSWMNWVKQRPGQGREWIGRIYPGDGDTNYSGKFKGKATLTADKSSSTAYMQLSSLTSVDSAVYFCARDGSSWDWYFDVWGAGTTVTVSS
VL: DILMTQTPLSLPVSLGDQASISCRSSQSIVHSNGNTFLEWYLQKPGQSPKLLIYKVSNRFSGVPDRFSGSGSGTDFTLKISRVEAEDLGVYYCFQGSQFPYTFGGGTKVEIK
For B3, the “koff/10^−4” value [5] was 4.2 and the “kon/10^5” value [5] was 0.26.
